The results in this text go back to patent US20220257784A1 (Bicycle, published 2022).

Starred links: 1 amine or outer side, 2 acyl side, 3 side chain; linkers in the order of their positions; H or OH if unused. Positions of bridges follow the written chain, without caps; N, C: chain ends. Non-standard residues stand in square brackets, D forms with d. No end group written: not given here. TATA = O=C(CC[*:1])N1CN(C(=O)CC[*:2])CN(C(=O)CC[*:3])C1; Ala(4-thiazolyl) = N[C@@H](Cc1cscn1)C(=O)O; Dip = N[C@H](C(=O)O)C(c1ccccc1)c1ccccc1; 1Nal = N[C@@H](Cc1cccc2ccccc12)C(=O)O; His(τ-Me) = Cn1cnc(C[C@H](N)C(=O)O)c1; d1Nal = N[C@H](Cc1cccc2ccccc12)C(=O)O; Hyp = O=C(O)[C@@H]1C[C@@H](O)CN1; hArg = N=C(N)NCCCC[C@H](N)C(=O)O; 2Thi = N[C@@H](Cc1cccs1)C(=O)O; 3Thi = N[C@@H](Cc1ccsc1)C(=O)O; Aad = N[C@@H](CCCC(=O)O)C(=O)O; His3Me = N3-methyl-L-histidine; Cysteamide = C(CS[*:3])N[*:1]; Cba = N[C@@H](CC1CCC1)C(=O)O; dNle = CCCC[C@@H](N)C(=O)O; NMeA = CN[C@@H](C)C(=O)O; Nle = CCCC[C@H](N)C(=O)O; Mpa = O=C(O)CCS

Usually Ki stands for a measure of affinity in units of concentration, obtained from inhibition or displacement.

The target of test [1] is T1, human EphA2 (human, UniProt P29317 25-534, limits assumed).
T1 construct: also called Eph receptor tyrosine kinase A2
T1 sequence (P29317 25-534 limits assumed): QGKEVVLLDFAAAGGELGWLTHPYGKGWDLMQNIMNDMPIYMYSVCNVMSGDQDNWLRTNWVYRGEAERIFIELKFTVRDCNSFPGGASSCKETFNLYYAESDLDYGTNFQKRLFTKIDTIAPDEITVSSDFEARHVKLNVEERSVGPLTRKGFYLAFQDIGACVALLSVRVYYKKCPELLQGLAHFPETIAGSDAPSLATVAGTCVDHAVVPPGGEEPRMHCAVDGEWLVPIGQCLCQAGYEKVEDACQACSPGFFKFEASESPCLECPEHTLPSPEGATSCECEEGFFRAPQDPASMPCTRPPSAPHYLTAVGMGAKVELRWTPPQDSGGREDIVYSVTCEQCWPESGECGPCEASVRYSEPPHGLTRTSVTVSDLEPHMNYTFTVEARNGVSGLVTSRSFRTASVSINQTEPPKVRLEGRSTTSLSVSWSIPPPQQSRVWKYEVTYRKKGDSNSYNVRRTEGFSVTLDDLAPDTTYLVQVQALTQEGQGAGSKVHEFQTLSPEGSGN
Description: fluorescence polarisation competition with tracer BCY90, human EphA2, mean of 6. As to the method:
(§1) Peptides without a fluorescent tag were tested in competition with a peptide with a fluorescent tag and a known Kd.
(§2) Peptides were diluted to an appropriate concentration in assay buffer as described in the direct binding assay with a maximum of 5% DMSO, then serially diluted 1 in 2. […] Measurements were conducted, however the gain was determined prior to the first measurement. Data analysis was in Systat Sigmaplot version 12.0 where the mP values were fit to a user defined cubic equation to generate a Ki value: […]
On the technique in general: Fluorescence polarisation rises when a labelled molecule tumbles more slowly, as on binding a larger partner.

Test [2] deals with T1, human EphA2. Description: fluorescence polarisation competition with tracer BCY90, human EphA2, mean of 8. On the procedure: as §1, §2
Test [3] has as its target T1, human EphA2. Description: fluorescence polarisation competition with tracer BCY90, human EphA2, mean of 38. As to the method: as §1, §2
For test [4], the target named is T1, human EphA2. Nature of the test: fluorescence polarisation competition with tracer BCY90, human EphA2, mean of 10. As to the method: as §1, §2

Molecule ADC[Hyp]LVNPLCLEP[dD]WTC-NH2 (linker 3-10-17 via TATA, Bicyclic peptide cyclised with TATA) [BCY13128] returned a Ki with human EphA2 [1] of 16.1 nM.
The same measure, in the same setting: as for A[hArg]DC[Hyp][Cba]VNPLCLHP[dD]W[hArg]C-NH2 (linker 4-11-18 via TATA, Bicyclic peptide cyclised with TATA) [BCY12862], the figure is 1.22 nM.
As for A[hArg]DC[Hyp][Cba]VNPLCLEP[dD]WTC-NH2 (linker 4-11-18 via TATA, Bicyclic peptide cyclised with TATA) [BCY12863], the inhibition constant (Ki) with human EphA2 [1] amounted to 5.84 nM.
As for A[hArg]DC[Hyp]LVNPLCL[Dip]P[dD]WTC-NH2 (linker 4-11-18 via TATA, Bicyclic peptide cyclised with TATA) [BCY12859], in the test with human EphA2 [2], the inhibition constant (Ki) is 0.723 nM.
A[hArg]DC[Hyp]LVNPLC[Aad]HP[dD]W[hArg]C-NH2 (linker 4-11-18 via TATA, Bicyclic peptide cyclised with TATA) [BCY13131] had a Ki with human EphA2 [1] of 27.1 nM.
Same read-out and setting: for A[hArg]DC[Hyp]LVNPLCL[His(τ-Me)]P[dD]W[hArg]C-NH2 (linker 4-11-18 via TATA, Bicyclic peptide cyclised with TATA) [BCY13918] the value was 2.62 nM; for A[hArg]DC[Hyp]LVNPLCL[Nle]P[dD]W[hArg]C-NH2 (linker 4-11-18 via TATA, Bicyclic peptide cyclised with TATA) [BCY13135], 0.894 nM.

B1: BCY13129 (peptide)
peptide: [Mpa][Hyp]LVNPLCL[Dip]P[dD]WTC[dK]-NH2
modifications: linker (positions not given here) via TATA; not fully specified (bridges)
notes: Bicyclic peptide cyclised with TATA; the first reactive group is 3-mercaptopropionic acid in place of cysteine
With B1, in the test with human EphA2 [1], the Ki was determined as 1.88 nM.
Same read-out and setting: as for [dA]EDC[Hyp]LVNPLCLEP[dD]WTC-NH2 (linker 4-11-18 via TATA, Bicyclic peptide cyclised with TATA) [BCY13126], the figure is 25.3 nM; as for [dA][dA]DC[Hyp]LVNPLCLEP[dD]WTC-NH2 (linker 4-11-18 via TATA, Bicyclic peptide cyclised with TATA) [BCY13127], 14.9 nM.
On the same count and under the same terms, as for A[hArg]DC[Hyp][Aad]VNPLCLHP[dD]W[hArg]C-NH2 (linker 4-11-18 via TATA, Bicyclic peptide cyclised with TATA) [BCY13130], the figure is 7.8 nM.
Same read-out and setting: for A[hArg]DC[Hyp]LVNPLCL[3Thi]P[dD]W[hArg]C-NH2 (linker 4-11-18 via TATA, Bicyclic peptide cyclised with TATA) [BCY13923] the value was 1.32 nM.
With [NMeA][hArg]DC[Hyp]LVNPLCLHP[dD]W[hArg]C-NH2 (linker 4-11-18 via TATA, Bicyclic peptide cyclised with TATA) [BCY13121], the inhibition constant (Ki) with human EphA2 [1] came to 1.49 nM.
On the same count and under the same terms, for A[hArg]DC[Hyp]LVNPLCLEP[dD]W[hArg]C-NH2 (linker 4-11-18 via TATA, Bicyclic peptide cyclised with TATA) [BCY12854] the value was 9.34 nM; for A[hArg]DC[Hyp]LVNPLCLQP[dD]W[hArg]C-NH2 (linker 4-11-18 via TATA, Bicyclic peptide cyclised with TATA) [BCY14048], 4.1 nM.
On the same count and under the same terms, as for A[hArg]DC[Hyp]LVNPLCLNP[dD]W[hArg]C-NH2 (linker 4-11-18 via TATA, Bicyclic peptide cyclised with TATA) [BCY14047], the figure is 3.88 nM.
Still for that read-out and setting: for A[hArg]DC[Hyp]LVNPLCLFP[dD]W[hArg]C-NH2 (linker 4-11-18 via TATA, Bicyclic peptide cyclised with TATA) [BCY13920] the value was 0.641 nM.
Take A[hArg]DC[Hyp]LVNPLCLHP[dD]W[hArg]C-NH2 (linker 4-11-18 via TATA, Bicyclic peptide cyclised with TATA) [BCY9594]: the Ki in the test with human EphA2 [3] amounted to 1.44 nM.
Molecule Ac-C[Hyp]LVNPLCLHP[dD]W[hArg]CL[dH]G[dK]-NH2 (linker 1-8-15 via TATA, Bicyclic peptide cyclised with TATA) [BCY13125] came in with a Ki with human EphA2 [1] of 1.83 nM.
On the same count and under the same terms, for A[hArg]DC[Hyp]LVNPLCLEP[dD]WTC[dA]-NH2 (linker 4-11-18 via TATA, Bicyclic peptide cyclised with TATA) [BCY12857] the value was 16 nM; for [d1Nal][hArg]DC[Hyp][Cba]VNPLCLEP[dA]WTC[dA]-NH2 (linker 4-11-18 via TATA, Bicyclic peptide cyclised with TATA) [BCY13124], 7.62 nM.
Consider A[hArg]DC[Hyp]LVNPLCLEP[dD]WTC-NH2 (linker 4-11-18 via TATA, Bicyclic peptide cyclised with TATA) [BCY12856], for which the inhibition constant Ki in the test with human EphA2 [2] amounted to 4.63 nM.
Take A[hArg]DC[Hyp]LVNPLCLHP[dD]WTC-NH2 (linker 4-11-18 via TATA, Bicyclic peptide cyclised with TATA) [BCY12855]: affinity with human EphA2 [1] was put at a Ki of 5.55 nM.
Still for that read-out and setting: for A[hArg]DC[Hyp]LVNPLCLEP[dA]WTC-NH2 (linker 4-11-18 via TATA, Bicyclic peptide cyclised with TATA) [BCY12858] the value was 8.19 nM.
In the test with human EphA2 [4], A[hArg]DC[Hyp]LVNPLCL[Dip]P[dD]W[hArg]C-NH2 (linker 4-11-18 via TATA, Bicyclic peptide cyclised with TATA) [BCY12866] had a Ki of 0.244 nM.
In the case of C[Hyp][Cba]VNPLCL[Dip]P[dD]WTC[dA]-NH2 (linker 1-8-15 via TATA, Bicyclic peptide cyclised with TATA) [BCY12865], the Ki in the test with human EphA2 [1] worked out at 0.857 nM.
The same measure, in the same setting: for C[Hyp]LVNPLCLEP[dD]WTC[dA]-NH2 (linker 1-8-15 via TATA, Bicyclic peptide cyclised with TATA) [BCY12861] the value was 21.7 nM; for [dA][hArg]DC[Hyp][Cba]VNPLCLEP[dD]WTC[dA]-NH2 (linker 4-11-18 via TATA, Bicyclic peptide cyclised with TATA) [BCY12864], 9.29 nM.
On the same count and under the same terms, as for [dA][hArg]DC[Hyp][Cba]VNPLCLEP[dA]WTC[dA]-NH2 (linker 4-11-18 via TATA, Bicyclic peptide cyclised with TATA) [BCY13123], the figure is 6.44 nM; as for A[hArg]DC[Hyp]LVNPLCLEP[d1Nal]WTC-NH2 (linker 4-11-18 via TATA, Bicyclic peptide cyclised with TATA) [BCY13118], 5.42 nM.

B2: BCY13133 (peptide)
peptide: A[hArg]DC[Hyp]LVNPLCLHP[dD]W[hArg][Cysteamide]
modifications: linker (positions not given here) via TATA; not fully specified (bridges)
notes: Bicyclic peptide cyclised with TATA; the third reactive group is cysteamine in place of cysteine
In the case of B2, the affinity with human EphA2 [1] corresponds to a Ki of 3.24 nM.
In the test with human EphA2 [1], C[Hyp]LVNPLCL[Dip]P[dD]WTC-NH2 (linker 1-8-15 via TATA, Bicyclic peptide cyclised with TATA) [BCY12860] showed an inhibition constant Ki of 0.66 nM.
Still for that read-out and setting: as for A[hArg]DC[Hyp]LVNPLCL[Aad]P[dD]W[hArg]C-NH2 (linker 4-11-18 via TATA, Bicyclic peptide cyclised with TATA) [BCY13132], the figure is 7.08 nM.
On to A[hArg]DC[Hyp]LVNPLCL[1Nal]P[dD]W[hArg]C-NH2 (linker 4-11-18 via TATA, Bicyclic peptide cyclised with TATA) [BCY13117], for which the Ki with human EphA2 [2] amounted to 1.12 nM.
On to A[hArg]DC[Hyp]LVNPLCL[His3Me]P[dD]W[hArg]C-NH2 (linker 4-11-18 via TATA, Bicyclic peptide cyclised with TATA) [BCY13917], for which affinity with human EphA2 [1] was put at a Ki of 1.72 nM.
The same measure, in the same setting: as for A[hArg]DC[Hyp]LVNPLCL[2Thi]P[dD]W[hArg]C-NH2 (linker 4-11-18 via TATA, Bicyclic peptide cyclised with TATA) [BCY13922], the figure is 1.14 nM; as for A[hArg]DC[Hyp]LVNPLCL[Ala(4-thiazolyl)]P[dD]W[hArg]C-NH2 (linker 4-11-18 via TATA, Bicyclic peptide cyclised with TATA) [BCY13919], 2.1 nM.
[NMeA][hArg]DC[Hyp]LVNPLCLEP[dD]WTC-NH2 (linker 4-11-18 via TATA, Bicyclic peptide cyclised with TATA) [BCY13122] displayed an inhibitory constant (Ki) with human EphA2 [2] of 7.8 nM.
Same read-out and setting: as for C[Hyp]LVNPLCL[1Nal]P[dD]WTC-NH2 (linker 1-8-15 via TATA, Bicyclic peptide cyclised with TATA) [BCY13119], the figure is 2.64 nM; as for A[hArg]DC[Hyp]LVNPLCLHP[d1Nal]W[hArg]C-NH2 (linker 4-11-18 via TATA, Bicyclic peptide cyclised with TATA) [BCY13116], 1.13 nM.
In the test with human EphA2 [1], A[hArg]DC[Hyp]LVNPLCLHP[dNle]W[hArg]C-NH2 (linker 4-11-18 via TATA, Bicyclic peptide cyclised with TATA) [BCY13134] had an inhibition constant Ki of 1.16 nM.
On the same count and under the same terms, as for Ac-C[Hyp]LVNPLCL[Dip]P[dD]WTC[dK]-NH2 (linker 1-8-15 via TATA, Bicyclic peptide cyclised with TATA) [BCY13120], the figure is 0.916 nM.
